From publication PMC6555819, “Comprehensive study of nuclear receptor DNA binding provides a revised framework for understanding receptor specificity”
Where a chain is given by its changes, count along the chain named.

B1: NRC3_random_hg19_385_o1 (dsDNA)
DNA 1: GCTCTATGGTCACTAGACCTTGGGATGCACCAAGGCGCGATTGACAGCGTAGAATGAAGG
DNA 2: CCTTCATTCTACGCTGTCAATCGCGCCTTGGTGCATCCCAAGGTCTAGTGACCATAGAGC
B2: NRC3_wobSeed37_DR1_G22C_o1 (dsDNA)
DNA 1: GCCGTCCAAGGTCAAAGGTCACTGAAGAGATGACGGGCGATTGACAGCGTAGAATGAAGG
DNA 2: CCTTCATTCTACGCTGTCAATCGCCCGTCATCTCTTCAGTGACCTTTGACCTTGGACGGC
B3: NRC3_random_hg19_195_o1 (dsDNA)
DNA 1: GCGGACTGTCTGCAAAGAGTCCTGTGATATGATCTGGCGATTGACAGCGTAGAATGAAGG
DNA 2: CCTTCATTCTACGCTGTCAATCGCCAGATCATATCACAGGACTCTTTGCAGACAGTCCGC
B4: NRC3_wobSeed109_DR4_G25C_o1 (dsDNA)
DNA 1: GCCGTCCAAGGTCATAGGAGGTCACTGAAGACAGATGCGATTGACAGCGTAGAATGAAGG
DNA 2: CCTTCATTCTACGCTGTCAATCGCATCTGTCTTCAGTGACCTCCTATGACCTTGGACGGC
B5: NRC3_wobSeed109_DR4_G17A_o1 (dsDNA)
DNA 1: B4 DNA 1 with G17A, C25G
DNA 2: B4 DNA 2 with G36C, C44T
B6: NRC3_wobSeed28_DR1_T8A_o1 (dsDNA)
DNA 1: GCCCTACAGGGCCAAAGGTCATTGATTCCAATGCTCGCGATTGACAGCGTAGAATGAAGG
DNA 2: CCTTCATTCTACGCTGTCAATCGCGAGCATTGGAATCAATGACCTTTGGCCCTGTAGGGC
B7: NRC3_wobSeed28_DR1_T22G_o1 (dsDNA)
DNA 1: B6 DNA 1 with A8T, T22G
DNA 2: B6 DNA 2 with A39C, T53A
B8: NRC3_wobSeed29_DR1_C25T_o1 (dsDNA)
DNA 1: GCGCTTACGGGTCAAAGGTTATAGTATGAATAGAATGCGATTGACAGCGTAGAATGAAGG
DNA 2: CCTTCATTCTACGCTGTCAATCGCATTCTATTCATACTATAACCTTTGACCCGTAAGCGC
B9: NRC3_wobSeed98_DR4_G11T_o1 (dsDNA)
DNA 1: GCACTAGTTGTTCAGCTGAGGTCACACACAATTCGGGCGATTGACAGCGTAGAATGAAGG
DNA 2: CCTTCATTCTACGCTGTCAATCGCCCGAATTGTGTGTGACCTCAGCTGAACAACTAGTGC
B10: NRC3_wobSeed5_DR0_G23T_o1 (dsDNA)
DNA 1: GCCCTTACGGGTCAAGGTTATATCACGGGTGGTACGGCGATTGACAGCGTAGAATGAAGG
DNA 2: CCTTCATTCTACGCTGTCAATCGCCGTACCACCCGTGATATAACCTTGACCCGTAAGGGC
B11: NRC3_wobSeed9_DR0_T17G_o1 (dsDNA)
DNA 1: GCATCTCTAGGTAAAGGTCAGTGAAAGATCGATAGAGCGATTGACAGCGTAGAATGAAGG
DNA 2: CCTTCATTCTACGCTGTCAATCGCTCTATCGATCTTTCACTGACCTTTACCTAGAGATGC
B12: NRC3_wobSeed30_DR1_G7A_o1 (dsDNA)
DNA 1: GCACTAACAGGCCAAGGGTCACTCAAGATTAGTCCGGCGATTGACAGCGTAGAATGAAGG
DNA 2: CCTTCATTCTACGCTGTCAATCGCCGGACTAATCTTGAGTGACCCTTGGCCTGTTAGTGC
B13: NRC3_wobSeed74_DR3_C13T_o1 (dsDNA)
DNA 1: GCTCTAGTTGGTTACGGAGGTCACACACGACGGGTAGCGATTGACAGCGTAGAATGAAGG
DNA 2: CCTTCATTCTACGCTGTCAATCGCTACCCGTCGTGTGTGACCTCCGTAACCAACTAGAGC
B14: NRC3_wobSeed46_DR1_C7A_o1 (dsDNA)
DNA 1: GCTTACAAAGGTGAAAGGTCGTTGATGCACGCCTTGGCGATTGACAGCGTAGAATGAAGG
DNA 2: CCTTCATTCTACGCTGTCAATCGCCAAGGCGTGCATCAACGACCTTTCACCTTTGTAAGC
B15: NRC3_wobSeed41_DR1_T8G_o1 (dsDNA)
DNA 1: GCATATGGAGGTTAAGGGTCATTCAGGTTGGTTCGCGCGATTGACAGCGTAGAATGAAGG
DNA 2: CCTTCATTCTACGCTGTCAATCGCGCGAACCAACCTGAATGACCCTTAACCTCCATATGC
B16: NRC3_wobSeed37_DR1_G24A_o1 (dsDNA)
DNA 1: B2 DNA 1 with C22G, G24A
DNA 2: B2 DNA 2 with C37T, G39C
B17: NRC3_wobSeed49_DR2_A5C_o1 (dsDNA)
DNA 1: GCCACACTAGGTCAAGAGGTCAAAGTCCGCTTCCCGGCGATTGACAGCGTAGAATGAAGG
DNA 2: CCTTCATTCTACGCTGTCAATCGCCGGGAAGCGGACTTTGACCTCTTGACCTAGTGTGGC
B18: NRC3_wobSeed97_DR4_A6T_o1 (dsDNA)
DNA 1: GCCAATCTAGGTCACGAAAGGTCAAAGTCGAATGACGCGATTGACAGCGTAGAATGAAGG
DNA 2: CCTTCATTCTACGCTGTCAATCGCGTCATTCGACTTTGACCTTTCGTGACCTAGATTGGC
B19: NRC3_wobSeed17_DR0_A24T_o1 (dsDNA)
DNA 1: GCATATGTAGGTTAGGGTCATTCTGAAAGTAGGGAAGCGATTGACAGCGTAGAATGAAGG
DNA 2: CCTTCATTCTACGCTGTCAATCGCTTCCCTACTTTCAGAATGACCCTAACCTACATATGC
B20: NRC3_wobSeed13_DR0_G17C_o1 (dsDNA)
DNA 1: GCCGTCCAAGGTCAAGCTCAGTGAAAGAGACTCGAAGCGATTGACAGCGTAGAATGAAGG
DNA 2: CCTTCATTCTACGCTGTCAATCGCTTCGAGTCTCTTTCACTGAGCTTGACCTTGGACGGC
B21: NRC3_wobSeed13_DR0_C19G_o1 (dsDNA)
DNA 1: B20 DNA 1 with C17G, C19G
DNA 2: B20 DNA 2 with G42C, G44C
B22: NRC3_wobSeed25_DR1_C26T_o1 (dsDNA)
DNA 1: GCCAAACTAGGTCAAAGGTCAAAGTTGAGCCAACCAGCGATTGACAGCGTAGAATGAAGG
DNA 2: CCTTCATTCTACGCTGTCAATCGCTGGTTGGCTCAACTTTGACCTTTGACCTAGTTTGGC
B23: NRC3_wobSeed25_DR1_A5G_o1 (dsDNA)
DNA 1: B22 DNA 1 with A5G, T26C
DNA 2: B22 DNA 2 with A35G, T56C
B24: NRC3_wobSeed99_DR4_G27A_o1 (dsDNA)
DNA 1: GCTCTCGGAGGACACGAAAGGTCAGAACTCGACATCGCGATTGACAGCGTAGAATGAAGG
DNA 2: CCTTCATTCTACGCTGTCAATCGCGATGTCGAGTTCTGACCTTTCGTGTCCTCCGAGAGC

biological target: PPARg:RXRa (Homo sapiens, UniProt P37231;P19793 full;full); assay: no ligand; PBM; 180 nM : 90 nM RXRa; PBS pH 7.4, 2% milk, 0.02% Triton X-100, 1 mM DTT, BSA, 0.4 mg/ml salmon testes DNA; conditions: tags: His kept;His cleaved; copies: 1;1; label: surface-attached array probe
Sequence (P37231 29-505, chain 1 of 2): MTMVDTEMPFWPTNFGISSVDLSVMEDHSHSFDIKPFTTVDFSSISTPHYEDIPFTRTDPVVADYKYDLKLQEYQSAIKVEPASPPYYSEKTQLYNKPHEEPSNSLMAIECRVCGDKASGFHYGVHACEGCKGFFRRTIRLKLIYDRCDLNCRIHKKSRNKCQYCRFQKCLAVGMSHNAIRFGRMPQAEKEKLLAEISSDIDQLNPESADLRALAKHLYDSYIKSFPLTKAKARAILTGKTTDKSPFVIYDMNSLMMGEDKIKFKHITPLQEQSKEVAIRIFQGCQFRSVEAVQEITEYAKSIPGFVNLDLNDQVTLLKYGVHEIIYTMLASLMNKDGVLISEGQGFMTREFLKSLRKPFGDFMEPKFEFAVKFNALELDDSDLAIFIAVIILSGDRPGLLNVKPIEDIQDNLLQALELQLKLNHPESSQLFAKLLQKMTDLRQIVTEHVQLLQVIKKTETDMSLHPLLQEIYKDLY
Sequence (P19793 whole entry, chain 2 of 2): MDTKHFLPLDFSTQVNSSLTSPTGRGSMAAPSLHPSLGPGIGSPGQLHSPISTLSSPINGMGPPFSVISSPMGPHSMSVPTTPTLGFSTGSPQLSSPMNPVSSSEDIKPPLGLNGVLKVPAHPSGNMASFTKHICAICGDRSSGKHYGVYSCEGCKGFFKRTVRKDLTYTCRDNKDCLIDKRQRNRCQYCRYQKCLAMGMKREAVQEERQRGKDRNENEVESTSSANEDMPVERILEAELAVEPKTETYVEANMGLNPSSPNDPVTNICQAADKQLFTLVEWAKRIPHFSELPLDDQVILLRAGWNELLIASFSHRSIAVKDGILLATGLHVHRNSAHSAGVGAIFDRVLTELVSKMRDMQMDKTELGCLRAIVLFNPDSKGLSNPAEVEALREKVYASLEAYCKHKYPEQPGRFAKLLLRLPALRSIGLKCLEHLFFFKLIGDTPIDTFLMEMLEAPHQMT

Binder	binding signal
B1	0.45 PBM z-score against 500 random probes
B2	11.9 PBM z-score against 500 random probes
B3	0.1 PBM z-score against 500 random probes

biological target: VDR:RXRa (Homo sapiens, UniProt P11473;P19793 full;full); assay: no ligand; PBM; 270 nM : 90 nM RXRa; PBS pH 7.4, 2% milk, 0.02% Triton X-100, 1 mM DTT, BSA, 0.4 mg/ml salmon testes DNA; conditions: tags: His kept;His cleaved; copies: 1;1; label: surface-attached array probe
How it was run: (§1)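 Custom Agilent 4×180K protein-binding microarrays carried double-stranded probes. Their 34-nt variable regions held direct-repeat seeds, single-nucleotide variants, half-site ablations and random human genomic background sequences. Arrays were incubated 1 h with ligand-free nuclear receptor dimers in PBS pH 7.4, 2% milk, 0.02% Triton X-100, 1 mM DTT, 0.2 mg/mL BSA and 0.4 mg/ml salmon testes DNA. Antibodies against each partner (one per run) detected binding, and scanned fluorescence was regression-normalized. Binding z-scores use random background probes as reference.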

Chain of VDR:RXRa (P11473 whole entry, chain 1 of 2): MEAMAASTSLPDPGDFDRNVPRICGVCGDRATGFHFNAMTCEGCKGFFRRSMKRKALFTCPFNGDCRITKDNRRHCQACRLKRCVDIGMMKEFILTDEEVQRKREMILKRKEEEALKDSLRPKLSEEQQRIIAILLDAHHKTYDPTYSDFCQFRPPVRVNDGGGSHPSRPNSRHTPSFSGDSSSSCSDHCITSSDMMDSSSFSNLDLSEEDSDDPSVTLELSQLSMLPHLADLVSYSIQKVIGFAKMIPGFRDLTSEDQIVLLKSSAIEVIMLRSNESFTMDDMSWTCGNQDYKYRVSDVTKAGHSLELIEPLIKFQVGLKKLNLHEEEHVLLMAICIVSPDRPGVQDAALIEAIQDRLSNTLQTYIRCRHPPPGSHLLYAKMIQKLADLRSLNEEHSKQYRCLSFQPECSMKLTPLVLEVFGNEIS
Chain of VDR:RXRa (P19793 whole entry, chain 2 of 2): as the sequence (P19793 whole entry, chain 2 of 2) above

Binder	binding signal
B2	7.17 PBM z-score against 500 random probes

biological target: LXRa:RXRa (Homo sapiens, UniProt Q13133;P19793 full;full); assay: as above; conditions: tags: His kept;His cleaved; copies: 1;1; label: surface-attached array probe
How it was run: as §1

Chain of LXRa:RXRa (Q13133 whole entry, chain 1 of 2): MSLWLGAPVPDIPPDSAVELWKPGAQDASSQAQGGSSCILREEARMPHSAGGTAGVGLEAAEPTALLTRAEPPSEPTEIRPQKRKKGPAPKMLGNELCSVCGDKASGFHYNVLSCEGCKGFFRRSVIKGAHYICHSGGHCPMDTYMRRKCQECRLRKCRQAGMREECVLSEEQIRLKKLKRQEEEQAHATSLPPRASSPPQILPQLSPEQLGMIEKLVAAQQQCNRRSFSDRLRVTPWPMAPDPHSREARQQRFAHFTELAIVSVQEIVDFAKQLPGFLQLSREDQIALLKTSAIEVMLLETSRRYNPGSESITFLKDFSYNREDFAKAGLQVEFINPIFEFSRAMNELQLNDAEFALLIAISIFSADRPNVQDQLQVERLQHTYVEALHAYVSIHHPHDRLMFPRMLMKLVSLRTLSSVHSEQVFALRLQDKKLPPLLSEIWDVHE
Chain of LXRa:RXRa (P19793 whole entry, chain 2 of 2): as the sequence (P19793 whole entry, chain 2 of 2) above

Binder	binding signal
B1	0.2 PBM z-score against 500 random probes
B3	-1.32 PBM z-score against 500 random probes

biological target: PXR:RXRa (Homo sapiens, UniProt O75469;P19793 full;full); assay: as above; conditions: tags: His kept;His cleaved; copies: 1;1; label: surface-attached array probe
How it was run: as §1

Chain of PXR:RXRa (O75469 whole entry, chain 1 of 2): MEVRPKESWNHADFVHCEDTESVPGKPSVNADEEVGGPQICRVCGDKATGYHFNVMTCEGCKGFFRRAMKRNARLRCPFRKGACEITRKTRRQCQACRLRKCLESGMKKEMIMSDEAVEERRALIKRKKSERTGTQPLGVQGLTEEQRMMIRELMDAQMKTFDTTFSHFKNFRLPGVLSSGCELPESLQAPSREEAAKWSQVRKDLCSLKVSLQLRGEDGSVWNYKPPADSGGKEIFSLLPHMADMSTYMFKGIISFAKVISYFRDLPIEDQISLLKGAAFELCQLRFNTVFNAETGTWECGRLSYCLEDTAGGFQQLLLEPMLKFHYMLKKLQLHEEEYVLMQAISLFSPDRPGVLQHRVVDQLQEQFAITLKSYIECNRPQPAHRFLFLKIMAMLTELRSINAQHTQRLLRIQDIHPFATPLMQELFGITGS
Chain of PXR:RXRa (P19793 whole entry, chain 2 of 2): as the sequence (P19793 whole entry, chain 2 of 2) above

Binder	binding signal
B1	0.11 PBM z-score against 500 random probes
B2	7.38 PBM z-score against 500 random probes
B3	-0.96 PBM z-score against 500 random probes

biological target: RARa:RXRa (Homo sapiens, UniProt P10276;P19793 full;full); assay: as above; conditions: tags: His kept;His cleaved; copies: 1;1; label: surface-attached array probe
How it was run: as §1

Chain of RARa:RXRa (P10276 whole entry, chain 1 of 2): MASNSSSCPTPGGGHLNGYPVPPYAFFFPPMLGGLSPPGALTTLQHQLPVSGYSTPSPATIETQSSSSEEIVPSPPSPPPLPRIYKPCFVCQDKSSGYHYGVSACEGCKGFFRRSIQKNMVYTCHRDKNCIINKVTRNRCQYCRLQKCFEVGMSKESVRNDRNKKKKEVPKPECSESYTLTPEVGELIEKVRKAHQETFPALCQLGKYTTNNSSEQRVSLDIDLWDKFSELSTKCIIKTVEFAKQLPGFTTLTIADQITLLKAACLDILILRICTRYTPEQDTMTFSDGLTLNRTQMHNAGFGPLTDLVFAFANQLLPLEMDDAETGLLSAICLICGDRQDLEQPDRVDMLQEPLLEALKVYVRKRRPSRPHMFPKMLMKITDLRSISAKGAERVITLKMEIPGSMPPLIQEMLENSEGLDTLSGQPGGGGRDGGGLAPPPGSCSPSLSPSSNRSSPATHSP
Chain of RARa:RXRa (P19793 whole entry, chain 2 of 2): as the sequence (P19793 whole entry, chain 2 of 2) above

Binder	binding signal
B4	7.71 PBM z-score against 500 random probes
B5	7.18 PBM z-score against 500 random probes
B6	7.45 PBM z-score against 500 random probes
B7	4.44 PBM z-score against 500 random probes
B8	8.73 PBM z-score against 500 random probes
B9	4.63 PBM z-score against 500 random probes
B10	4.39 PBM z-score against 500 random probes
B11	4.31 PBM z-score against 500 random probes
B12	4.53 PBM z-score against 500 random probes
B13	4.41 PBM z-score against 500 random probes
B14	7.64 PBM z-score against 500 random probes
B15	7.62 PBM z-score against 500 random probes
B16	9.33 PBM z-score against 500 random probes
B17	8.44 PBM z-score against 500 random probes
B18	8.17 PBM z-score against 500 random probes
B19	4.56 PBM z-score against 500 random probes
B20	4.6 PBM z-score against 500 random probes
B21	4.49 PBM z-score against 500 random probes
B22	9.38 PBM z-score against 500 random probes
B23	9.27 PBM z-score against 500 random probes
B24	4.35 PBM z-score against 500 random probes

biological target: RARg:RXRa (Homo sapiens, UniProt P13631;P19793 full;full); assay: as above; conditions: tags: His kept;His cleaved; copies: 1;1; label: surface-attached array probe
How it was run: as §1

Chain of RARg:RXRa (P13631 whole entry, chain 1 of 2): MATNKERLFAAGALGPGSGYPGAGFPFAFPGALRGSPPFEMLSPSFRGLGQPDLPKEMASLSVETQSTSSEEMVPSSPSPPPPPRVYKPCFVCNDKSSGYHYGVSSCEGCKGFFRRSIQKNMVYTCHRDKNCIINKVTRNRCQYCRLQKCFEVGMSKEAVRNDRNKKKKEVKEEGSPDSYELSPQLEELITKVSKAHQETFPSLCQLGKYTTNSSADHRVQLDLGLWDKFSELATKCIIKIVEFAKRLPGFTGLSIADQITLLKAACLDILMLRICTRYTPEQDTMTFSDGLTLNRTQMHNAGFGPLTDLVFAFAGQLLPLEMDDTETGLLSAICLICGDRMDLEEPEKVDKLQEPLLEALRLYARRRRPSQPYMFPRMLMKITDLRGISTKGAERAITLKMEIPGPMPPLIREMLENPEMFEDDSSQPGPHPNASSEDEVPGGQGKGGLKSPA
Chain of RARg:RXRa (P19793 whole entry, chain 2 of 2): as the sequence (P19793 whole entry, chain 2 of 2) above

Binder	binding signal
B2	9.31 PBM z-score against 500 random probes
